Test results taken from patent US20160297884A1 (Pfizer, published 2016).

Assays:
[1] = biological target: BCMA (analyte of Table 4A); experiment: SPR (Bio-Rad ProteOn XPR36), IgG amine-coupled, BCMA as analyte, kinetic titration; species of BCMA and temperature not stated for Table 4A
Experimental: (§1) All experiments were performed on a Bio-Rad Proteon XPR36 surface Plasmon resonance biosensor (Bio-Rad, Hercules, Calif.). […] The analysis temperature for the immobilization was 25° C. and the running buffer was HBS-T+(10 mM HEPES, 150 mM NaCl, 0.05% Tween-20, pH 7.4). Channels were activated in the analyte (horizontal) direction by injecting a mixture of 1 mM ECD and 0.25 mM NHS for 3 minutes at a flow rate of 30 μL/min. IgGs were immobilized on the activated spots by injecting them in the ligand (vertical) direction at 20 μg/mL in 10 mM Acetate pH 4.5 buffer for 1.5 minutes at […]. The activated surfaces were blocked by injecting 1M ethanolamine, pH 8.5 in the analyte direction for 3 minutes at 30 μL/min.
(§2) The analysis temperature for the BCMA binding analysis was 37° C. or 25° C. in a running buffer of HBS-T+, supplemented with 1 mg/mL BSA. A kinetic titration method was employed for the interaction analysis as described in Abdiche, et al. Human BCMA (huBCMA) or cynomolgus monkey BCMA (cyBCMA) analyte was injected in the analyte direction using a series of injections from low to high concentration. The concentrations used were 0.08 nM, 0.4 nM, 2 nM, 10 nM and 50 nM (a 5-membered series, with a 5-fold dilution factor and top concentration of 50 nM). The association time for a given analyte dilution was two minutes. Immediately after the 50 nM BCMA injection, dissociation was monitored for 2 hours.
(§3) The sensorgrams were double-referenced and fit to a 1:1 Langmuir with mass transport kinetic titration model in BIAevaluation Software version 4.1.1 (GE Lifesciences, Piscataway, N.J.).

cynomolgus monkey BCMA [2] = biological target: T1, cynomolgus monkey BCMA (cynomolgus monkey, UniProt A0A2K5UD97 1-53); experiment: SPR, IgG immobilised, 37 C
T1 construct: Soluble analyte in SPR; construct not described; also called cyBCMA; Cyno BCMA
In short: (§4)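 Binding was run at 37° C or 25° C with species-specific BCMA (human or cyno) flowed over immobilized IgG in a single-cycle series of 0.08, 0.4, 2, 10, 50 nM.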

Human BCMA [3] = biological target: T2, Human BCMA (human, UniProt Q02223 1-54, limits assumed); experiment: SPR, IgG immobilised, 37 C
T2 construct: Soluble analyte in SPR; construct not described; also called huBCMA; B-cell maturation antigen
T2 sequence (looked up): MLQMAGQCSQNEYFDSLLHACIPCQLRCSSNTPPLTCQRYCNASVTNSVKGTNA
In short: as §4

cynomolgus monkey BCMA [4] = biological target: T1, cynomolgus monkey BCMA; experiment: SPR, IgG immobilised, 25 C
Experimental: as §1, §2, §3

Human BCMA [5] = biological target: T2, Human BCMA; experiment: SPR, IgG immobilised, 25 C
Experimental: as §1, §2, §3

Human BCMA [6] = biological target: T2, Human BCMA; experiment: SPR, IgG immobilised, 37 C; huBCMA @25° C.

Sequence of BCMA (analyte of Table 4A) (Q02223 whole entry, the tested form may be a part): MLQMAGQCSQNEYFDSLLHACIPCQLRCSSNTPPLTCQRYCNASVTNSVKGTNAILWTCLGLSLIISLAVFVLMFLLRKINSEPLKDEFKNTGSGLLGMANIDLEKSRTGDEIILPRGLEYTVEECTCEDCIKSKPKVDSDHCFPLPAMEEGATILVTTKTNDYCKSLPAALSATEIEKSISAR
T1 sequence (A0A2K5UD97 entry or part of it): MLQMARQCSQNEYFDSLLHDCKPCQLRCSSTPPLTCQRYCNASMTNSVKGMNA

Row | Binder | Kd [1] [pM] | koff [1] [s⁻¹] | kon [1] [M⁻¹ s⁻¹] | t1/2 [1] [min] | Kd (cynomolgus monkey BCMA [4]) [pM] | T ½ (cynomolgus monkey BCMA [4]) [min] | koff (cynomolgus monkey BCMA [4]) [s⁻¹] | kon (cynomolgus monkey BCMA [4]) [M⁻¹ s⁻¹] | Kd (Human BCMA [5]) [pM] | T ½ (Human BCMA [5]) [min] | koff (Human BCMA [5]) [s⁻¹] | kon (Human BCMA [5]) [M⁻¹ s⁻¹] | also measured
1 | A02_Rd4_6nM_C01 (antibody, V domains shown) VH: EVQLLESGGGLVQPGGSLRLSCAASGFTFSSYAMNWVRQAPGKGLEWVSAITASGGSTYYADSVKGRFTISRDNSKNTLYLQMNSLRAEDTAVYYCARYWPMSLWGQGTLVTVSS VL: EIVLTQSPGTLSLSPGERATLSCRASQSVSAYYLAWYQQKPGQAPRLLMYDASIRATGIPDRFSGSGSGTDFTLTISRLEPEDFAVYYCQQYERWPLTFGQGTKVEIK | 24 | 2.8e-05 | 1.2e+06 | 411 | – | – | – | – | – | – | – | – | –
2 | COMBO_Rd4_0.6nM_C29 (antibody, V domains shown, Tested as IgG) VH: EVQLLESGGGLVQPGGSLRLSCAASGFTFSSYPMSWVRQAPGKGLEWVSAIGGSGGSLPYADSVKGRFTISRDNSKNTLYLQMNSLRAEDTAVYYCARYWPMDIWGQGTLVTVSS VL: EIVLTQSPGTLSLSPGERATLSCRASQSVSSSYLAWYQQKPGQAPRLLMYDASIRATGIPDRFSGSGSGTDFTLTISRLEPEDFAVYYCQQYQSWPLTFGQGTKVEIK | 21 | 0.00014 | 6.6e+06 | 83 | – | – | – | – | – | – | – | – | –
3 | L3.PY/P6E01 (antibody, V domains shown, IgG) VH: EVQLLESGGGLVQPGGSLRLSCAASGFTFGSYAMTWVRQAPGKGLEWVSAISGSGGNTFYADSVKGRFTISRDNSKNTLYLQMNSLRAEDTAVYYCARVSPIASGMDYWGQGTLVTVSS VL: EIVLTQSPGTLSLSPGERATLSCRASQSVSSSYLAWYQQKPGQAPRLLIYGASSRATGIPDRFSGSGSGTDFTLTISRLEPEDFAVYYCQHYPYPPSFTFGQGTKVEIK | – | – | – | – | 3400 | 3.9 | 0.00293 | 855000 | 320 | 50.7 | 0.000228 | 712000 | Kd (cynomolgus monkey BCMA [2]): 5960 pM; T ½ (cynomolgus monkey BCMA [2]): 0.88 min; koff (cynomolgus monkey BCMA [2]): 0.0131 s⁻¹; kon (cynomolgus monkey BCMA [2]): 2.2e+06 M⁻¹ s⁻¹; Kd (Human BCMA [3]): 740 pM; T ½ (Human BCMA [3]): 5.91 min; koff (Human BCMA [3]): 0.00196 s⁻¹; kon (Human BCMA [3]): 2.65e+06 M⁻¹ s⁻¹
4 | L3.KW/P6E01 (antibody, V domains shown, IgG) VH: EVQLLESGGGLVQPGGSLRLSCAASGFTFGSYAMTWVRQAPGKGLEWVSAISGSGGNTFYADSVKGRFTISRDNSKNTLYLQMNSLRAEDTAVYYCARVSPIASGMDYWGQGTLVTVSS VL: EIVLTQSPGTLSLSPGERATLSCRASQSVSSSYLAWYQQKPGQAPRLLIYGASSRATGIPDRFSGSGSGTDFTLTISRLEPEDFAVYYCKHYGWPPSFTFGQGTKVEIK | – | – | – | – | 3400 | 4.5 | 0.00257 | 763000 | 430 | 36.7 | 0.000315 | 740000 | –
5 | L3.NY/P6E01 (antibody, V domains shown, IgG) VH: EVQLLESGGGLVQPGGSLRLSCAASGFTFGSYAMTWVRQAPGKGLEWVSAISGSGGNTFYADSVKGRFTISRDNSKNTLYLQMNSLRAEDTAVYYCARVSPIASGMDYWGQGTLVTVSS VL: EIVLTQSPGTLSLSPGERATLSCRASQSVSSSYLAWYQQKPGQAPRLLIYGASSRATGIPDRFSGSGSGTDFTLTISRLEPEDFAVYYCQHYNYPPSFTFGQGTKVEIK | – | – | – | – | 2800 | 4 | 0.00287 | 1.01e+06 | 440 | 30.1 | 0.000384 | 876000 | –
6 | L3.PY/L1.PS/H2.QR (antibody, V domains shown, IgG) VH: EVQLLESGGGLVQPGGSLRLSCAASGFTFGSYAMTWVRQAPGKGLEWVSAISGSGGNTFYADQRKGRFTISRDNSKNTLYLQMNSLRAEDTAVYYCARVSPIASGMDYWGQGTLVTVSS VL: EIVLTQSPGTLSLSPGERATLSCRASQSVSSSYPSWYQQKPGQAPRLLIYGASSRATGIPDRFSGSGSGTDFTLTISRLEPEDFAVYYCQHYPYPPSFTFGQGTKVEIK | – | – | – | – | – | – | – | – | – | – | – | – | Kd (cynomolgus monkey BCMA [2]): 1280 pM; T ½ (cynomolgus monkey BCMA [2]): 17.2 min; koff (cynomolgus monkey BCMA [2]): 0.00067 s⁻¹; kon (cynomolgus monkey BCMA [2]): 525000 M⁻¹ s⁻¹; Kd (Human BCMA [3]): 25800 pM; T ½ (Human BCMA [3]): 0.11 min; kon (Human BCMA [3]): 3.97e+06 M⁻¹ s⁻¹; koff (Human BCMA [6]): 0.103 s⁻¹
7 | L3.PY/H3.TAQ (antibody, V domains shown, Tested as IgG) VH: EVQLLESGGGLVQPGGSLRLSCAASGFTFGSYAMTWVRQAPGKGLEWVSAISGSGGNTFYADSVKGRFTISRDNSKNTLYLQMNSLRAEDTAVYYCTRVSPIAAQMDYWGQGTLVTVSS VL: EIVLTQSPGTLSLSPGERATLSCRASQSVSSSYLAWYQQKPGQAPRLLIYGASSRATGIPDRFSGSGSGTDFTLTISRLEPEDFAVYYCQHYPYPPSFTFGQGTKVEIK | 53 | 0.00014 | 2.6e+06 | 84 | – | – | – | – | – | – | – | – | –
8 | A02_Rd4_6nM_C16 (antibody, V domains shown, Tested as IgG; also called P5AC16) VH: EVQLLESGGGLVQPGGSLRLSCAASGFTFSSYAMNWVRQAPGKGLEWVSAISDFGGSTYYADSVKGRFTISRDNSKNTLYLQMNSLRAEDTAVYYCARYWPMDIWGQGTLVTVSS VL: EIVLTQSPGTLSLSPGERATLSCRASQSVSDLYLAWYQQKPGQAPRLLMYDASIRATGIPDRFSGSGSGTDFTLTISRLEPEDFAVYYCQQYQTWPLTFGQGTKVEIK | 59 | 6.2e-05 | 1.1e+06 | 187 | – | – | – | – | – | – | – | – | –
